Assay results reported in patent US6881824B1, “Peptides suitable for use in antigen specific immunosuppressive therapy” (Akzo Nobel N.V., priority 1996, dated 2005).

B1: HC gp-39 peptide 56 (residues printed as 352-377) (peptide)
peptide: WALDLDDFQGSFCGQD
notes: A 16-mer starting at 352 would end at 367, so this is probably a misprint

target: T1, DR4 (DRB1*0401) molecules purified from the homozygous EBV-transformed human B lymphoblastoid cell line … (human, UniProt P01903 26-254); test: competition binding assay on purified DR4(DRB1*0401)
T1 construct: mature; That form is inferred from purification of the native complex

Binding result, binds:
VKSKVQYLKDRQLAGA [HC gp-39 peptide 53 (residues 334-349)], RGATVHRTLGQQVPYA [HC gp-39 peptide 48 (residues 304-319)], EICDFLRGATVHRTLG [HC gp-39 peptide 47 (residues 298-313)], PASKLVMGIPTFGRSF [HC gp-39 peptide 39 (residues 250-265)], B1, GTLAYYEICDFLRGAT [HC gp-39 peptide 46 (residues 292-307)]
